Results taken from patent publication US20230039401A1, “COMPOSITIONS AND METHODS FOR TREATING NRP2-ASSOCIATED DISEASES” (aTyr Pharma, Inc., priority 2018, published 2023).
“Also recorded” adds a separate entry of the source.

Legend:
NRP2 [1] = target: T1, NRP2 (Homo sapiens, UniProt O60462); experiment: SPR binding of known ligands to NRP2; details: known NRP2 ligands
T1 construct: Fc (C); purchased R&D Systems 2215-N2
Method: (§1) Protein-Protein Interaction studies. […] SPR experiments were conducted on a Bio-Rad ProteOn XPR36 Protein Interaction Array instrument. Proteins were immobilized on different channels of ProteOn GLC sensor chips through amine coupling. Analyte proteins were flowed over the immobilized proteins. The sensor chip surface was regenerated between each analyte run to remove interacting proteins. Data was double referenced against an interspot (untreated chip surface) and a blank surface (activated and deactivated for amine coupling).
(§2) A subset of the known ligands of NRP2 appears to compete binding of Fc-HRS(2-60) to NRP2.

[2] = target: T2, NRP2:Fc-HRS(2-60) interaction (Homo sapiens, UniProt O60462); experiment: SPR competition of known NRP2 ligands with the NRP2:Fc-HRS(2-60) interaction; assay type: binding
T2 construct: Fc (C); purchased R&D Systems 2215-N2
Method: as §1
(§3) Studies were performed to confirm the binding specificity of Neuropilin 2 (NRP2) to Fc-HRS(2-60) using orthologous methods to those used in the large scale Retrogenix screening (Example 1). In a series of experiments, Fc-HRS(2-60) and related proteins were immobilized on SPR chips, and NRP2 and related proteins were flowed as analytes. Upon confirmation of the NRP2:Fc-HRS(2-60) interaction, the dependence on divalent cations was tested as NRP2 is known to have Ca^2+ binding sites. The effects of previously characterized NRP2 ligands on the NRP2: Fc-HRS(2-60) interaction was also tested to determine if these known ligands have competitive effects on the Fc-HRS(2-60) interaction.
as §2

NRP2 [3] = target: T1, NRP2; experiment: SPR protein-protein interaction, human NRP2 over immobilized protein; assay type: binding; details: NRP2 flowed as analyte (50 nM or 20 nM); running buffer with 5 mM CaCl2
Method: as §1, §3

mouse NRP2 = target: T3, mouse NRP2 (Mus musculus, UniProt O35375); experiment: SPR protein-protein interaction, mouse NRP2 over immobilized protein; assay type: binding; details: 50 nM mouse NRP2 as analyte
T3 construct: Fc (C); purchased R&D Systems 7988-N2
Method: as §1, §3

[4] = target: T4, cell-expressed NRP2 (NRP2a-GFP fusion protein on HEK293T cells) (Homo sapiens, UniProt O60462); experiment: Immunofluorescence binding of Fc-HRS (2-60) to HEK293T cells overexpressing NRP2v2-GFP; details: HEK293T cells overexpressing NRP2v2-GFP, GFP Bright cells
T4 construct: host or cells: HEK293T
Method: Reagents: • PE anti-human IgG Fc Antibody, clone HP6017, Biolegend cat 409304 • Mouse Anti-HRS monoclonal antibody (1-96) Clone 1C8, Abnova cat H00003035-M01 • Mouse IgG2a, Isotype control antibody (MOPC-173), Biolegend cat 400223 • Recombinant Human VEGF-C Protein, R&D Systems, cat 2179-VC-025/CF • Formaldehyde, 16%, methanol free, Ultra Pure, Polysciences, cat 18814-10 • Hoechst 33342, Trihydrochloride, Trihydrate, ThermoFisher Scientific, cat H1399 • Fc-HRS (2-60) was prepared as described in PCT application PCT/US2014/029699 • Gibco DMEM, High Glucose, ThermoFisher Scientific, cat 11965092 • PolyJet™ In Vitro DNA Transfection Reagent, SignaGen, cat SL100688 • Neuropilin 2 (NRP2) (NM_003872) Human ORF Clone, Origene, cat RG220706 • Collagen Coating Solution, Cell Applications Cat 125-100 • 1×PBS containing 1% BSA, 0.9 mM CaCl2 and 20 mM glucose • Binding buffer containing 1% normal mouse IgG (sigma cat 18765) and 2.5% (Human Fc Receptor Binding Inhibitor, ebioscience 14-9161-73).
Cell culture and transfection. […]
Immunofluorescence assays on cultured cells. Binding and quantitation of Fc-HRS (2-60) to cell-expressed NRP2 was achieved using immunofluorescence microscopy. […] The Hoechst stain was replaced with 1×PBS and subsequently read on an IN Cell Analyzer 2200. 20× images were acquired and analyzed using In Cell Analyzer 1000 Workstation software. […]

rat NRP2 = target: T5, rat NRP2 (Rattus norvegicus, UniProt O35276); experiment: SPR protein-protein interaction, rat NRP2 over immobilized protein; assay type: binding; details: 50 nM rat NRP2 as analyte
T5 construct: Fc (C); His (C); purchased R&D Systems 567-N2
T5 sequence (O35276 23-925): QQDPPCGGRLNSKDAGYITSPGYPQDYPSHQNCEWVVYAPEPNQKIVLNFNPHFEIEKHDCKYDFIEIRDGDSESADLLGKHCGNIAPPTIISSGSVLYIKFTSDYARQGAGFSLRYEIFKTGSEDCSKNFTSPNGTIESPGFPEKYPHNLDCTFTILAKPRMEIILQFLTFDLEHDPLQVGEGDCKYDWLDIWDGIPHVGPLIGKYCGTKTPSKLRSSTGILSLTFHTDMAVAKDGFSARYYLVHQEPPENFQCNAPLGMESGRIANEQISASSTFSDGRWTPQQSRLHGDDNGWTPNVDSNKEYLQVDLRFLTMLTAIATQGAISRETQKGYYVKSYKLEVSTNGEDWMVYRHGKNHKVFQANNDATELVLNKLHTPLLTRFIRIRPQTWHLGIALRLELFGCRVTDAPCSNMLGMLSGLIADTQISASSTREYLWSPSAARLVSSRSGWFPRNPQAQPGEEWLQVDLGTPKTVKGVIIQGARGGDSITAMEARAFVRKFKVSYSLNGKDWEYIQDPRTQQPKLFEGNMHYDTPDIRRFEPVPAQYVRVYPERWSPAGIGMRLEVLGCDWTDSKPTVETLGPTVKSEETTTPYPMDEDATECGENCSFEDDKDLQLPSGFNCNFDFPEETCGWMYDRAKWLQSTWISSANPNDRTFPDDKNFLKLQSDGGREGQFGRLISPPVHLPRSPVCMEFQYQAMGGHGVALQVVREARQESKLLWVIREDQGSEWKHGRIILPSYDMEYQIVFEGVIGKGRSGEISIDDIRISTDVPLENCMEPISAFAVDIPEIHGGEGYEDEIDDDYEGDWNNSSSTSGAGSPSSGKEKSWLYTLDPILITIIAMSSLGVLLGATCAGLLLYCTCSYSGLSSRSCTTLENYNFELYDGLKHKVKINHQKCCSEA
Method: as §1, §3

T3 sequence (O35375 21-931): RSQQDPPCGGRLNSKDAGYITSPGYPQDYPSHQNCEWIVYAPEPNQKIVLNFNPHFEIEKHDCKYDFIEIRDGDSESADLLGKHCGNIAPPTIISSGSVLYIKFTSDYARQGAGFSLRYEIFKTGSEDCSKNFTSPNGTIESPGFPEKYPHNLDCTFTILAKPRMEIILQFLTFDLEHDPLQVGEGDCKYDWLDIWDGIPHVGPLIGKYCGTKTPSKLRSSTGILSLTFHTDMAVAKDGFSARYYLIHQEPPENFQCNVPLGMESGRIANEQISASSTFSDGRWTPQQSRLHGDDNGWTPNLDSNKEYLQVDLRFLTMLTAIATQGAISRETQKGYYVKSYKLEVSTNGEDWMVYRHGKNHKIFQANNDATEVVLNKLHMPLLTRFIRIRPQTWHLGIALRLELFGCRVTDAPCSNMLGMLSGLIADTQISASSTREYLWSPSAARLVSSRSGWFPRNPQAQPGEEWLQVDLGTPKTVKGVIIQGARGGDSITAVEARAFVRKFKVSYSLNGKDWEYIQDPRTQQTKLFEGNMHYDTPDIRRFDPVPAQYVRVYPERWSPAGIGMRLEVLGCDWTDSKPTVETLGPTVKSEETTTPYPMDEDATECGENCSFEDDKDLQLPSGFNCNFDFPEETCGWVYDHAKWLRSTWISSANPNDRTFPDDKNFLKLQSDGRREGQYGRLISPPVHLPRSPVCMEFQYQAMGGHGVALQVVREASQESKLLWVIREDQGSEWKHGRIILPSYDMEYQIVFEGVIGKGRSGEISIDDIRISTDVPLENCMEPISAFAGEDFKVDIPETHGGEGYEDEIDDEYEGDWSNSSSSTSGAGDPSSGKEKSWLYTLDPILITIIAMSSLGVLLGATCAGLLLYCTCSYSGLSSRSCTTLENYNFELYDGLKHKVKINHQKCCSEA

Substance | Binding to NRP2 observed by SPR (NRP2 [1]) | effect of ligand on binding of NRP2 to Fc-HRS(2-60) (SPR) ([2]; NRP2 in the presence of the ligand over immobilized Fc-HRS(2-60)) | Competes with Fc-HRS(2-60) for NRP2 binding ([2]; SPR, NRP2 binding to immobilized Fc-HRS(2-60) in presence of ligand) | binding of human NRP2 to immobilized protein (SPR) (NRP2 [3]) | binding of mouse NRP2 to immobilized protein (SPR) (mouse NRP2) | binding to cell-expressed NRP2a (staining intensity of anti-Fc-PE complex) [4] | binding of rat NRP2 to immobilized protein (SPR) (rat NRP2)
VEGF-A165: commercial protein (Peprotech #100-20) [reference compound] | Yes | reduced or ablated | Yes |  |  |  | 
Fc-HRS(2-11): truncated form of Fc-HRS(2-60) with a 49 amino acid deletion at the C-terminus, deleting the majority of the WHEP domain |  |  |  | not a truncated form of Fc-HRS(2-11); also recorded: none of these NRP2 forms bind | not a truncated form of Fc-HRS(2-11); also recorded: none of these NRP2 forms bind | negligible specific binding | not a truncated form of Fc-HRS(2-11); also recorded: none of these NRP2 forms bind
